The target in the series is microtubules.

B1: Bacterially expressed and purified KinI-3 protein (protein)
chain: DCDIPIIQRISHVSGYNYGIPHSCIRQNTSEKQNPWTEMEKIRVCVRKRPLGMREVRRGEINIITVEDKETLLVHEKKEAVDLTQYILQHVFYFDEVFGEACTNQDVYMKTTHPLIQHIFNGGNATCFAYGQTGAGKTYTMIGTHENPGLYALAAKDIFRQLEVSQPRKHLFVWISFYEIYCGQLYDLLNRRKRLFAREDSKHMVQIVGLQELQVDSVELLLEVILKGSKERSTGATGVNADSSRSHAVIQIQIKDSAKRTFGRISFIDLAGSERAADARDSDRQTKMEGAEINQSLLALKECIRALDQEHTHTPFRQSKLTQVLKDSFIGNAKTCMIANISPSHVATEHTLNTLRYADRVKEL
Turning to B1, the “microtubule depolymerization (tubulin in supernatant after centrifugation, SDS-PAGE), AL + ATP/MT” value is “Track 3 shows an increase in tubulin in the supernatant that indicates depolymerization in the presence of ATP”; the “microtubule depolymerization (tubulin in supernatant), AL + MT + ADP” value was “No depolymerization was observed ... in the presence of ADP (track 6)”; the “microtubule depolymerization (tubulin in supernatant), AL + MT/AMPPNP” value was “No depolymerization was observed ... in the presence of AMP-PNP (track 5)”; the “microtubule depolymerization (tubulin in supernatant), AL treated by Apyrase + MT” value was “No depolymerization was observed in the absence of ATP (track 4)”.

The values are drawn from patent US6794178.
